According to US6716809B1, “Mage-A3 peptides presented by HLA class molecules” (priority 1997, dated 2004):

How the values were obtained:
clone C3.43 = experiment: IFN-γ production by CD4 clone C3.43 stimulated with peptide- or protein-pulsed EBV-B cells; format: cell-based, human; conditions: 20 μg/ml protein
Procedure: EBV-B cells from hemochromatosis patient 1981 (LB-1981-EBV) were incubated with 20 μg/ml of ovalbumin (OVA) or MAGE-A3 protein (bacteria) for 20 h. Ten thousand cells were distributed in microwells to which an aliquot of microculture C3 (˜4,000 effector cells) was added. Several clones were obtained from microculture C3, in particular CD4^+ clones LB1981-CD4 527/C3.22 (referred to hereafter as clone C3.22) and LB1981-CD4 527/C3.43 (referred to hereafter as clone C3.43). The clones C3.22 and C3.43 (˜3,000 cells) were stimulated with LB-1981-EBV incubated with 20 μg/ml of MAGE-A3 (˜16,000 cells) or transduced with a retrovirus coding for a fusion protein Ii-MAGE-A3 (˜20,000 cells). IFN-γ production in the supernatant was estimated after overnight culture by ELISA. They both recognized autologous EBV-B cells loaded with protein MAGE-A3 (bacteria) or transduced with a retrovirus encoding a truncated invariant chain (Ii)-MAGE-A3 fusion protein (FIG. 17). These (most probably twin) clones recognized cells expressing Ii-MAGE-A3 endogenously and therefore they are directed against a MAGE-A3-derived antigen and not against a contaminant in the batch of protein.
The antigenic peptides were identified as described above, except that the peptides were tested at a concentration of 1 μg/ml and that the test was performed in 100 μl. Peptides LGDPKKLLTQHFVQEN (SEQ ID NO:82), KKLLTQHFVQENYLEY (SEQ ID NO:83), TQHFVQENYLEYRQVP (SEQ ID NO:84) and VQENYLEYRQVPGSDP (SEQ ID NO:85) were tested. Autologous EBV-B cells were incubated for 1 h with 1 μg/ml of each of the peptides. Clone C3.43 (3,000 cells) was then cocultured with 20,000 peptide-pulsed cells for 20 h. IFN-γ production in the supernatant was measured by ELISA.
Patient LB1981 was typed DPB1*0401. To confirm that DPB1*0401 was the presenting HLA-DP molecule, additional EBV-B cell lines were tested. Autologous LB 1981-EBV or allogeneic-EBV-B cells were incubated for 1 h with 1 μg/ml of peptides, and washed. CD4 clones (3,000 cells) were then incubated for 20 h with 20,000 peptide-pulsed EBV-B cells. IFN-γ released in the supernatant was measured by ELISA. Those EBV-B cell lines expressing DPB1*0401 were able to present the MAGE-A3243-258 peptide to clone C3.22 (Table VII). DPB1*0401 is expressed in approximately 64% of Caucasians.

[1] = tested on: CD4 T cell clone LB 1555 CD4 436/B6.37; experiment: Recognition of retrovirally transduced cells by CD4 T cell clone (IFN-γ ELISA); format: cell-based, human; conditions: overnight coculture
Procedure: The EBV transformed cells were infected by resuspending the cells in an infection cocktail and centrifugation. Target cells were resuspended in 60 mm tissue culture plates (Falcon) at a density of 1.0×10^6 cells in 4 ml infection cocktail. The plates were centrifuged for 2 hours at 32° C. and 1200 rcf in an IEC centrifuge, rotor type 228. For each plate to be transduced, 4 ml of […] was prepared by diluting the viral supernatant 1:2 in EBV cell growth medium and adding protamine sulfate to a final concentration of 6 μg/ml. Centrifugation was followed by another 2 hours of incubation in a humidified incubator at 37° C. and cells were transferred to 4 ml of target cell growth medium. This transduction cycle was carried out immediately after plating the cells and was repeated at 24 and 48 hours. […]
5000 T cells of LB705 CTL 434/1 or 3000 T cells of clone LB1555 CD4 436/B6.37 were washed and cultured overnight in the presence of 5000 retrovirally transduced EBV B cells of MZ2-EBV, or LG2-EBV B cells, in 100 μl ID medium containing 10% HS, AAG and 50 U/ml rh IL-2 in a round-bottom 96 wells plate. […] After three washings the plates were incubated with 50 μl per well horseradish peroxidase conjugated streptavidin (1:3000 in PBS/0.5% BSA) for 30 min at RT, which was detected by TMB substrate, and H2SO4 to stop the reaction. The optical density was read at 450 nm. […]

B1: MAGE-A3: MAGE-A3 protein; recombinant His-MAGE-A3 produced in E. coli, or expressed from MFG MAGE-A3 retrovirus in Example 6 (protein, listed as Homo sapiens)
chain: MPLEQRSQHCKPEEGLEARGEALGLVGAQAPATEEQEAASSSSTLVEVTLGEVPAAESPDPPQSPQGASSLPTTMNYPLWSQSYEDSSNQEEEGPSTFPDLESEFQAALSRKVAELVHFLLLKYRAREPVTKAEMLGSVVGNWQYFFPVIFSKASSSLQLVFGIELMEVDPIGHLYIFATCLGLSYDGLLGDNQIMPKAGLLIIVLAIIAREGDCAPEEKIWEELSVLEVFEGREDSILGDPKKLLTQHFVQENYLEYRQVPGSDPACYEFLWGPRALVETSYVKVLHHMVKISGGPHISYPPLHEWVLREGEE
modifications: His tag
recognition by clone C3.43 of autologous EBV-B cells loaded with protein (clone C3.43): recognized | recognition of transduced MZ2 EBV by CD4 clone 436/B6.37 (IFN-γ release) [1]: not recognized
